One block for each molecule: values may come before it.
Assays:
[1] = target: SAFB2 SAP domain (21-70), wild type (human) (UniProt Q14151); experiment: SEC; preparative size exclusion on HiLoad 16/600 SD 75 in 25 mM sodium phosphate, 150 mM NaCl, 0.02% NaN3, pH 6.5; size from calibration
SAFB2 SAP WT (21-70) [2] = target: T1, SAFB2 SAP WT (21-70) (Homo sapiens, UniProt Q14151 21-70); experiment: NMR titration; CSP as for 16mer; NMR: 20 mM BisTris, 150 mM NaCl, pH 6.5, 5% D2O, 298 K (RRM plus 2 mM TCEP). EMSA: 25 mM sodium phosphate, 150 mM NaCl, 0.02% NaN3, pH 6.5, 10 mM MgCl2, 0.6 ug; details: protein: recombinant; tags: N-terminal GAM left after TEV cleavage (His6-Trx removed); blunt
T1 chain: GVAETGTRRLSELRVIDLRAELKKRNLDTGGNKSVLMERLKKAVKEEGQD

SAFB2 SAP K53A/S54A = target: T2, SAFB2 SAP K53A/S54A (Homo sapiens, UniProt Q14151 21-70, K53A;S54A); experiment: NMR titration; 6x DNA; no significant CSPs; NMR: 20 mM BisTris, 150 mM NaCl, pH 6.5, 5% D2O, 298 K (RRM plus 2 mM TCEP). EMSA: 25 mM sodium phosphate, 150 mM NaCl, 0.02% NaN3, pH 6.5, 10 mM MgCl2, 0.6 ug; details: protein: recombinant; tags: N-terminal GAM left after TEV cleavage; blunt
T2 chain: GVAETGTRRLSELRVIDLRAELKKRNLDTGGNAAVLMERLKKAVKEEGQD

SAFB2 SAP WT (21-70) [3] = target: T1, SAFB2 SAP WT (21-70); experiment: EMSA; 0-40 uM SAP; yeast tRNA, 10 mM MgCl2; slight preference for AT over GC; apparent micromolar affinity; NMR: 20 mM BisTris, 150 mM NaCl, pH 6.5, 5% D2O, 298 K (RRM plus 2 mM TCEP). EMSA: 25 mM sodium phosphate, 150 mM NaCl, 0.02% NaN3, pH 6.5, 10 mM MgCl2, 0.6 ug; details: protein: recombinant; tags: N-terminal GAM left after TEV cleavage (His6-Trx removed); label: 5'-6-FAM on fw strand; blunt
SAFB2 RRM (404-485) [4] = target: T3, SAFB2 RRM (404-485) (Homo sapiens, UniProt Q14151 404-485); experiment: NMR titration; CSPs equal to A7/C7; NMR: 20 mM BisTris, 150 mM NaCl, pH 6.5, 5% D2O, 298 K (RRM plus 2 mM TCEP). EMSA: 25 mM sodium phosphate, 150 mM NaCl, 0.02% NaN3, pH 6.5, 10 mM MgCl2, 0.6 ug; details: protein: recombinant; tags: N-terminal GAM left after TEV cleavage (His6-Trx removed); blunt
T3 sequence (Q14151 404-485): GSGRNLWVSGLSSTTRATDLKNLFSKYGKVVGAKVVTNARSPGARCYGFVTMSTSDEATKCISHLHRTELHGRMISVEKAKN

SAFB2 SAP WT (21-70) [5] = target: T1, SAFB2 SAP WT (21-70); experiment: NMR titration; up to 6x DNA; fast exchange; NMR: 20 mM BisTris, 150 mM NaCl, pH 6.5, 5% D2O, 298 K (RRM plus 2 mM TCEP). EMSA: 25 mM sodium phosphate, 150 mM NaCl, 0.02% NaN3, pH 6.5, 10 mM MgCl2, 0.6 ug; details: protein: recombinant; tags: N-terminal GAM left after TEV cleavage (His6-Trx removed); blunt
SAFB2 RRM (404-485) [6] = target: T3, SAFB2 RRM (404-485); experiment: NMR titration; significant CSPs of RNP residues; NMR: 20 mM BisTris, 150 mM NaCl, pH 6.5, 5% D2O, 298 K (RRM plus 2 mM TCEP). EMSA: 25 mM sodium phosphate, 150 mM NaCl, 0.02% NaN3, pH 6.5, 10 mM MgCl2, 0.6 ug; details: protein: recombinant; tags: N-terminal GAM left after TEV cleavage (His6-Trx removed)

stoichiometry N [1]: 2
Molecule: SAFB2 SAP domain (21-70), wild type (from UniProt Q14151 21-70) (domain or fragment)

B1: dsAT9mer (dsDNA)
DNA 1: CAATATAAC
DNA 2: GTTATATTG
binding result (SAFB2 SAP WT (21-70) [2]): binds | binding result (SAFB2 SAP K53A/S54A): no binding

B2: dsAT13mer (dsDNA)
DNA 1: GCAATAAATACG
DNA 2: CGTATTTATTGC
binding result (SAFB2 SAP WT (21-70) [3]): binds

B3: dsGC16mer (dsDNA)
DNA 1: CGCCCCCGCGCCCGCG
DNA 2: CGCGGGCGCGGGGGCG
binding result (SAFB2 RRM (404-485) [4]): binds

B4: dsAT16mer (dsDNA)
DNA 1: GCGCACAATATAACGC
DNA 2: GCGTTATATTGTGCGC
binding result (SAFB2 RRM (404-485) [4]): binds | binding result (SAFB2 SAP WT (21-70) [5]): binds

Molecule: CCCCCCC (ssRNA) [C7]
binding result (SAFB2 RRM (404-485) [6]): binds

Molecule: AAAAAAA (ssRNA) [A7]
binding result (SAFB2 RRM (404-485) [6]): binds
